Source: patent US20250332297A1, “DLL3-SPECIFIC BINDING CONSTRUCTS AND THEIR USE IN RADIOTHERAPY” (MOLECULAR PARTNERS AG, priority 2024, published 2025)

Experiments:
Human DLL3-ECD = molecular target: T1, Human DLL3-ECD (Homo sapiens, UniProt Q9NYJ7); assay: SPR, immobilized DARPin, binding of human DLL3-ECD (Example 17); settings: immobilized biotinylated DARPin, DLL3-ECD as analyte, 1:1 Langmuir, Table 19
T1 construct: the extracellular domain of DLL3 (DLL3-ECD) from human, cynomolgus monkey, mouse and pig
T1 sequence (Q9NYJ7 27-492 limits assumed): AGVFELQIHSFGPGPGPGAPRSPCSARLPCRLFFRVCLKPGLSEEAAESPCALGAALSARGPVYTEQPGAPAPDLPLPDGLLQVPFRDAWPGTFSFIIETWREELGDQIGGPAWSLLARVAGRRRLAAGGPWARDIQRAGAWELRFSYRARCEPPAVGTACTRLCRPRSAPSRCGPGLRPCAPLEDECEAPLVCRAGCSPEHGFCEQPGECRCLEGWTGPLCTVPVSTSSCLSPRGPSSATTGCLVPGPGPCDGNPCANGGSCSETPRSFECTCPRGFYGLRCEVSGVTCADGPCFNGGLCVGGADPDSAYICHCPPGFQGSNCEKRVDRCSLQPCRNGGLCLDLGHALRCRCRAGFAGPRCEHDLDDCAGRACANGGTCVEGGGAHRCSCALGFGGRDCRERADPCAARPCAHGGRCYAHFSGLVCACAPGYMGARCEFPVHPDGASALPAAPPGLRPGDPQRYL
Description: (§1) Kinetic binding parameters and binding affinities of two domain (2D) ankyrin repeat protein MAM279 and single domain (1 D) ankyrin repeat protein MAM093 to DLL3 from different species were determined. The DLL3-specific ankyrin repeat domain of MAM093 is identical to the DLL3-specific ankyrin repeat domain comprised in MAM279.
(§2) SPR multi-trace analyses were performed similarly as described in Examples 1 and 11. Here, the binding kinetics of immobilized DARPin proteins to the extracellular domain of DLL3 (DLL3-ECD) from human, cynomolgus monkey, mouse and pig were determined. Various concentrations of recombinant DLL3-ECD starting from 500 nM were applied to immobilized biotinylated 2D DARPin (MAM279; SEQ ID NO: 11) or 1 D DARPin (MAM093; SEQ ID NO: 1) (both with a Glycine-Serine (GS) at the N-terminal end) for on-rate and off-rate measurements.
(§3) Streptavidin SAHC200M (Xantec) SPR chip was conditioned according to the manufacturer's protocol. Biotinylated DARPins were immobilized to a coating density of 27 resonance units (RU) for 1D DARPin and 25 RU for 2D DARPin. All analytes (3-fold dilution ranging from 500-6.17 nM) were injected in succession for 240 s and dissociation was recorded for 10800 s using a constant flow of 100 μl/min.

Cyno DLL3-ECD = assay: SPR, immobilized DARPin, binding of cyno DLL3-ECD (Example 17); parameters: species or system cynomolgus monkey; settings: immobilized biotinylated DARPin, DLL3-ECD as analyte, 1:1 Langmuir, Table 19
Description: as §1, §2, §3

mouse DLL3-ECD = molecular target: T2, mouse DLL3-ECD (Mus musculus, UniProt O88516); assay: SPR, immobilized DARPin, binding of mouse DLL3-ECD (Example 17); settings: immobilized biotinylated DARPin, DLL3-ECD as analyte, 1:1 Langmuir, Table 20
T2 construct: the extracellular domain of DLL3 (DLL3-ECD) from human, cynomolgus monkey, mouse and pig
T2 sequence (O88516 33-490 limits assumed): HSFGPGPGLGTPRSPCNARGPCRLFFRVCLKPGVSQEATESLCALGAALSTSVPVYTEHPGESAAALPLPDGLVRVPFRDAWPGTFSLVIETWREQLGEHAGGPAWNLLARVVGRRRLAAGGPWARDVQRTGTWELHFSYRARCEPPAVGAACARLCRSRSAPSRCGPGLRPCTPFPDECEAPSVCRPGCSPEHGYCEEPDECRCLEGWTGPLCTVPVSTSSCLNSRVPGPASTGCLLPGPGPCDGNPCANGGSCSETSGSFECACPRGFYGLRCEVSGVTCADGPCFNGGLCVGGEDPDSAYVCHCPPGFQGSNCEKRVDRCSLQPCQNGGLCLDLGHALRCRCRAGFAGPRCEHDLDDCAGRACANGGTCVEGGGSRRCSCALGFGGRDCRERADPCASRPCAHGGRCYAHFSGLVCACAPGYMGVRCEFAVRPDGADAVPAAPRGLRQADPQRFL
Description: as §1, §2, §3

human serum albumin [1] = molecular target: T3, human serum albumin (Homo sapiens, UniProt P02768); assay: SPR binding to human serum albumin (Example 18); parameters: purchased CSL; settings: immobilized HSA, 1:1 Langmuir, Table 21
Description: SPR multi-trace analyses were performed similarly as described in previous Examples. The following ankyrin repeat proteins analyzed: (i) MAM279 (SEQ ID NO: 11) (with a Glycine-Serine (GS) at its N-terminal end); and (ii) MAM279 (SEQ ID NO: 11), with a Glycine-Serine (GS) at its N-terminal end and a tag (SEQ ID NO: 10) at its C-terminal end (resulting in GS-MAM279-tag (SEQ ID NO: 15)), conjugated to the chelator DOTAM as described in Example 3.
All analytes (3-fold dilution ranging from 600-7.41 nM) were injected in succession for 240 s and dissociation was recorded for 600 s using a constant flow of 25 μl/min (HSA) or 100 μl/min (MSA) (25 μl/min). […] The obtained SPR traces were used to determine the DARPin-serum albumin interaction parameters, and results are summarized in Table 21.

human serum albumin [2] = molecular target: T3, human serum albumin; settings: class in words (Low, Mid, High); Table 5
Description: For SPR analysis, the free Cysteine of the 2D DARPins was capped with Iodoacetamide (IAM). A surface plasmon resonance (SPR) assay was then used to determine the binding kinetics of the three 2D DARPins to human or mouse serum albumin. Various concentrations of 2D DARPins starting from 2000 nM were applied to immobilized human serum albumin (HSA) or mouse serum albumin (MSA) for on-rate and off-rate measurements.
The data were generated using a BioRad ProteOn instrument with SPR running buffer (PBS, pH 7.4 containing 0.05% Tween 20®). A HC200M chip (Xantec) was conditioned according to the manufacturer's protocol. The chip was coated with purified human serum albumin (HSA, CSL) or mouse serum albumin (MSA, Sigma-Aldrich) in NaOAc pH5.0 to reach a signal intensity of ˜380 (HSA) or ˜630 (MSA) RU for the analysis of Intermediate HSA affinity 2D DARPin and High HSA affinity 2D DARPin; ˜1125 (HSA) or ˜1965 (MSA) for the analysis of Low HSA affinity 2D DARPin. All analytes (3-fold dilution ranging from 2000-24.69 nM) were injected in succession for 240 s (50 μl/min) and dissociation was recorded for 600 s (50 μl/min). The data was double referenced (control spot and buffer injection) and fitted to a 1:1 Langmuir model. The obtained SPR traces were used to determine binding parameters.

hDLL3-MC38 tumors = assay: Efficacy (tumor growth) in hDLL3-MC38 tumor model; type: in vivo, mouse; settings: tumor volume in mm^3, hDLL3-MC38
Description: To determine the efficacy of radio-labelled (Pb-212) DARPin (MAM160) conjugate in inhibiting the growth of tumors that express DLL3, different dose regimens (single or repeated dose) of the conjugate were tested in a mouse tumor model (hDLL3-MC38).
The first injections were done 7 days after the xenografts. Animals were under observation daily and 3× per week tumors were measured by caliper. Animals were sacrificed when tumors reached 1000 mm^3 or if termination criteria were met. The data were expressed as average+/−SEM of tumor volume in mm^3.

B1: MAM279: Two domain (2D) ankyrin repeat protein: serum albumin-specific domain (SEQ ID NO: 7), PT linker, DLL3-specific domain of MAM093 (protein)
chain: DLGKKLLEAARAGQDDEVRELLKAGADVNAKDYFSHTPLHLAARNGHLKIVEVLLKAGADVNAKDFAGKTPLHLAADAGHLEIVEVLLKAGADVNAQDIFGKTPADIAADAGHEDIAEVLQKAAGSPTPTPTTPTPTPTTPTPTPTGSDLGKKLLAAAAQGQDDEVRELLKAGANVNAKDLFGYTPLHLAAWRGHLEIVEVLLKAGADVNAKDAAGETPLHLAAWFGHLEIVEVLLKAGADVNAQDLQGKTPADLAAKEGHEDIAEVLQKAA
modifications: Ankyrin repeat protein (MAM279)
Human DLL3-ECD
  Kd: 0.127 nM
  Koff Human DLL3-ECD: 1.31e-05 s⁻¹
  Kon Human DLL3-ECD: 102000 M⁻¹ s⁻¹
Cyno DLL3-ECD
  Kd: 8.88 nM
  Koff Cyno DLL3-ECD: 0.000939 s⁻¹
  Kon Cyno DLL3-ECD: 106000 M⁻¹ s⁻¹
Mouse DLL3-ECD
  Kd: 83.9 nM
  Koff mouse DLL3-ECD: 0.00282 s⁻¹
  Kon mouse DLL3-ECD: 33700 M⁻¹ s⁻¹
Human serum albumin [1]
  Kd: 75.5 nM
  Koff HSA: 0.0216 s⁻¹
  Kon HSA: 286000 M⁻¹ s⁻¹

B2: MAM160: Two domain (2D) ankyrin repeat protein: serum albumin-specific domain (SEQ ID NO: 7), PT linker, DLL3-specific domain MAM120 (protein)
chain: DLGKKLLEAARAGQDDEVRELLKAGADVNAKDYFSHTPLHLAARNGHLKIVEVLLKAGADVNAKDFAGKTPLHLAADAGHLEIVEVLLKAGADVNAQDIFGKTPADIAADAGHEDIAEVLQKAAGSPTPTPTTPTPTPTTPTPTPTGSDLGTKLLSAAADGQDDEVRELLQAGADVNAKDLFGYTPLHLAAWRGHLEIVEVLLEAGADVNAKDAAGLTPLHLAAWFGHLEIVEVLLEAGADVNAQDVQGVTPADLAAKEGHEDIAEVLQQAA
modifications: Ankyrin repeat protein (MAM160)
Human serum albumin [2]
  HSA affinity: High

B3: Rova: Rova antibody, DLL3-binding benchmark antibody used as positive control and comparison (antibody, chains of the INN, looked up, V domains shown)
VH: QVQLVQSGAEVKKPGASVKVSCKASGYTFTNYGMNWVRQAPGQGLEWMGWINTYTGEPTYADDFKGRVTMTTDTSTSTAYMELRSLRSDDTAVYYCARIGDSSPSDYWGQGTLVTVSS
VL: EIVMTQSPATLSVSPGERATLSCKASQSVSNDVVWYQQKPGQAPRLLIYYASNRYTGIPARFSGSGSGTEFTLTISSLQSEDFAVYYCQQDYTSPWTFGQGTKLEIK
hDLL3-MC38 tumors; Dunnett's multiple comparisons test, Buffer vs. 3 × 10μCi (1 week apart)
  Mean Diff.: 251.6
hDLL3-MC38 tumors; Tukey's multiple comparisons test, Buffer vs. 3 × 10μCi
  Mean Diff.: 251.6
